Target: T1, recombinant soluble NadA (NadA_(24–350)) (Neisseria meningitidis strain 2996, UniProt Q8KH85 24-350)
T1 construct: Neisserial adhesin A (NadA) variant 3, N. meningitidis strain 2996, residues 24-350: ectodomain without the leader peptide and the anchor domain; Heated at 80°C for 2 h (thermally stressed, monomeric) in one SPR experiment; also called rNadA; NadA ectodomain
Test: peptide or protein array; recombinant soluble human and mouse proteins spotted; rNadA_(24–350) 1 µM in Nap-PBS overlaid for 1 h; rabbit anti-NadA serum and AlexaFluor 647 anti-rabbit IgG; MFI ≥ 30,000 high reactivity, MFI < 5,000 no reactivity
Conditions: both partners purified

Row | Binder | binding result
1 | Stathmin 2 (protein microarray) (natural protein, human, UniProt Q93045-2 1-187, looked up, human stathmin 2, recombinant soluble protein; also called STMN2; source: recombinant soluble protein produced at GNF, spotted on the microarray) MAKTAMAYKEKMKELSMLSLICSCFYPEPRNINIYTYDDMEVKQINKRASGQAFELILKPPSPISEAPRTLASPKKKDLSLEEIQKKLEAAEERRKSQEAQVLKQLAEKREHEREVLQKALEENNNFSKMAEEKLILKMEQIKENREANLAAIIERLQEKLVKFISSELKESIESQFLELQREGEKQ | binds
2 | Chromosome two open reading frame 66 (protein microarray) (natural protein, human, UniProt Q6UXQ4 39-117, looked up, human C2orf66, recombinant soluble protein; also called C2orf66; source: recombinant soluble protein produced at GNF, spotted on the microarray) ATVRNEDKWKPLNNPRNRDLFFRRLQAYFKGRGLDLGTFPNPFPTNENPRPLSFQSELTASASADYEEQKNSFHNYLKG | binds

— paper PMC11323535, “Neisserial adhesin A (NadA) binds human Siglec-5 and Siglec-14 with high affinity and promotes bacterial adhesion/invasion” (mBio, 2024)
